The data set concerns the molecule itself. Kind of data set: SEC. For orientation: Size exclusion chromatography separates by hydrodynamic size, large species first.

B1: Campylobacter jejuni β-hydroxyacyl-ACP dehydratase (FabZ) (enzyme, Campylobacter jejuni strain 81-176, UniProt Q9PIM2 1-146, looked up)
chain: MIDVMQIQEILPHRYPFLLVDKITELKVKEVVLGYKNISISDHVFMGHFPGHPIYPGVLILEGMAQTGGVLAFESMEDKVDPKSKVVYFTGIDGAKFRNPVRPGDRLDYEMSVVKNRGNMWIFKGQAFVDGNLVAEAELKAMIVDK
For the protein B1, the stoichiometry N (as a rule, the number of molecules, sites or subunits per partner or assembly) amounted to 6.

The record behind these values is paper PMC2914181 (Biochemical and biophysical research communications, 2009).
